Where only a bound is given, the exact number is not on record here.

The values below come from patent US20120190612A1, “METHODS OF TREATMENT” (CRC FOR ASTHMA AND AIRWAYS LTD., priority 2009, published 2012).

One experiment deals with T1, integrin β3 (Homo sapiens, UniProt P05106).
T1 construct: endogenous in cells; host or cells: HMVEC-LLy (human primary lymphatic endothelial cells)
The experiment can be described thus: Integrin binding of HMVEC-LLy cells on antibody-coated plates. As to conditions: lamstatin 10 μg/ml, CP17 5 μM, 1 h. The format is cell-based. The method, then:
(§1) Antibodies for integrin α5 (MAB1956Z; MAB1953Z), integrin β1 (MAB2253Z) and integrin β3 (MAB1957Z) (all Millipore, USA) were coated to 96 well tissue culture plates (Nunc, USA) at a concentration of 10 μg/mL overnight at 4° C. in sterile coating buffer (50 mM Na2CO3, 50 mM NaHCO3, pH 9.6). Plates then were blocked with sterile 1% BSA/PBS for 1 h at 37° C. and washed twice with EBM-2 MV (Lonza, Basel, Switzerland). MMVEC-LLy cells were carefully removed from culture flasks with non-enzymatic detachment solution (Trevigen, Md., USA) and washed twice with EBM-2 (Lonza, Basel, Switzerland). Volume was adjusted to a cell concentration of 50,000 cells/100 μL and divided into aliquots for treatment with recombinant lamstatin (10 μg/ml), CP17 (5 μM) or vehicle (1 nM EDTA, pH 3.5) only. Cells were then transferred to the antibody-coated plates and incubated for 1 h at 37° C. Wells were then washed with HANKS twice to remove unbound cells and fixed with 4% paraformaldehyde (in PBS) for 15 min at room temperature. Wells thereafter were photographed with an Olypmus CAMEDIA C-4000 camera mounted to an Olympus CK2 microscope. Pictures were divided into 25 segments and cells of 5 center-near quadrants were counted and averaged. […] Using a similar approach, the inventors observed no expression of integrin α4 on the surface of HMVEC-LLy cells (data not shown).

A further experiment deals with T2, integrin α5 (Homo sapiens, UniProt P05556+P08648).
T2 construct: endogenous in cells; host or cells: HMVEC-LLy (human primary lymphatic endothelial cells)
The experiment is described as above. The format is cell-based. The conditions noted are these: lamstatin 10 μg/ml, CP17 5 μM, 1 h. The method, then:
as §1

For the next experiment, the target named is T3, integrin β1 (Homo sapiens, UniProt P05556+P08648).
T3 construct: endogenous in cells; host or cells: HMVEC-LLy (human primary lymphatic endothelial cells)
The experiment is described as above. Type of experiment: cell-based. As to conditions: lamstatin 10 μg/ml, CP17 5 μM, 1 h. The method, then:
as §1

In experiment [1] the test system is HMVEC-LLy cells. The experiment in a line: Migration towards a VEGF-D gradient (FluoroBlok transwell). Type of experiment: cell-based, human. The conditions noted are these: 24 hrs. The method, then: FluoroBlok BioCoat 24-well inserts (BD Bioscience) were seeded with 4×10^4 HMVEC-LLy cells in 750 μL DMEM with 0.1% BSA, 1% antibiotics and 25 mM HEPES and incubated for 1 hr. The bottom well was filled with 500 μL medium (as described above) with or without 10 ng/mL VEGF-D (R&D Systems) as well as various concentrations of lamstatin, tumstatin, CP17 or vehicle. Additionally, top wells were loaded with inhibitors to match the bottom well concentration. According to manufacturer's instructions cells were allowed to migrate for 24 hrs before bottom media was removed. Thereafter the underside of the transwell with the migrated cells was washed twice with HANKS buffer and placed in a 4 μg/mL calcein (HANKS) solution for 90 min at 37° C. Signal was read with a bottom read fluorescence microplate reader at 485/515 nm (excitation/emission).

Experiment [2] relates to lung adenocarcinoma cells (LNM35 AAV-GFP). The experiment can be described thus: Mouse ear tumour plug model of tumour-induced lymphangiogenesis. Type of experiment: in vivo. As to conditions: lamstatin 10 or 100 μg/mL; CP17 5 or 50 μA; vs vehicle. The method, then: A mouse ear tumour plug model was utilized in which green fluorescent protein (GFP)-tagged lung adenocarcinoma cells (LNM35 AAV-GFP) were injected between the two layers of skin of the ears of NOD/SCID mice. 1×10^6 tumour cells were embedded in […] growth factor free Matrigel® medium enriched with vehicle (1 nM EDTA, pH3.0) or lamstatin at either 10 μg/mL or 100 μg/mL. Mice were divided into three groups.
Group 1 (n=9): One ear of each mouse injected with tumour cells+10 μg/mL lamstatin; the other ear injected with tumour cells+vehicle control. Group 2 (n=9): One ear of each mouse injected with tumour cells+100 μg/mL lamstatin; the other ear injected with tumour cells+vehicle control. Group 3 (n=3): Each ear injected with Matrigel® only.
Injections were single shots such that at least 25 μL was injected. 12 days after injection were sacrificed by anesthetisation and cervical dislocation. Ears were removed for whole mount staining. Flaps of skin from each ear were carefully separated, fixed and stained for either the lymphatic endothelial cell specific marker LyVe-1 (rabbit polyclonal anti-LyVe-1 antibody detected using anti-rabbit Alexafluor 647) or the vascular endothelial cell specific marker PECAM (CD31 rat anti-mouse antibody clone MEC13.3 (Pharmingen), detected with […]). Tumour cells were visualised by detection of GFP expression. Images of representative regions of ears were obtained using a confocal microscope and LyVe-1 or PECAM staining was quantified.
Using the LyVe-1 whole mount stained mouse ear sections, the inventors further investigated the morphology of lymphatic vessel formation. Specifically confocal images were loaded into Image J software (www.sbweb.nih.gov/ij/), a 5×5 grid overlayed and vessels examined for branching and looping. The functionality of a lymphatic network is based on its maturity and in general it is accepted that a tumour induces a rather immature network formation. Reconnecting vessels (measured as loops) and increased branching (measured as branches) are signs of immature vessels induced by, for example, a tumour (see for example Shayan et al. Growth Factors 25, 417-425, 2007).
Branches were defined as two clearly distinguishable vessels that separate out without rejoining. Loops were defined as small, circular vessel structures in the same focal plane. Branches or loops were counted separately per image and mean values were calculated for each treatment group.

Experiment [3] relates to HMVEC-LLy cells. The experiment can be described thus: Tube formation on Matrigel. The format is cell-based, human. The conditions noted are these: 24 hrs, n=2. The method, then: To assess formation of tubular structures, 48 well plates were coated with 130 μL Matrigel® (BD Bioscience), which was solidified at 37° C. over 45 min. 2×10^4 HMVEC-LLy cells in complete EBM-2 (500 μL) were seeded per well and allowed to attach for 30 min, before lamstatin, tumstatin, CP17 or vehicle was added to the wells. Photos were taken with a Kodak Digital Camera every 2 hrs. Tube formation peaked at 24 hrs, at which time tubular structures were further analysed to determine length (in pixels) and number of tubes per high power field (HPF) area (px^2). The HPF was divided in nine regions of equal size and tubes per region were counted. Mean and SEM were calculated and plotted.

For another experiment, the target named is T4, integrins α5 and β1 (Homo sapiens, UniProt P05556+P08648).
T4 construct: endogenous in cells; host or cells: HMVEC-LLy (human primary lymphatic endothelial cells)
The experiment in a line: Integrins mediating binding of lymphatic endothelial cells (data not shown). Type of experiment: cell-based. As to conditions: HMVEC-LLy in vitro, different from HUVECs.

For another experiment, the target named is VEGF-D (R&D Systems) (UniProt O43915). The experiment in a line: cell-based or functional assay.
Experiment [4] concerns human primary lymphatic endothelial cells (HMVEC-LLy cells). The experiment in a line: MTT cell viability assay, lymphatic endothelial cells. The format is cell-based. As to conditions: 24 hrs, data not shown. The method, then:
To determine the function of lamstatin, human primary lymphatic endothelial cells (HMVEC-LLy cells) were exposed to various concentrations of lamstatin and an MTT assay was performed. As a comparison, commercially available tumstatin was used. Specifically, to assess cell viability 4×10^3 HMVEC-LLy cells were seeded per well in 100 μl complete EBM-2 media (with bullet kit, Lonza) and incubated for 2 hrs at 37° C., 5% CO2. After this period lamstatin, tumstatin and respective vehicles (1 nM EDTA, pH 3.0) were prepared in complete EBM-2 as serial dilutions in a separate plate and added. […] After 6 h of further incubation cells were lysed overnight with 10% SDS/0.01 M HCl and measured the following day in a plate reader at 570 nm.
The MTT assay was performed as described above.
(In general: Tetrazolium assays rely on reduction of a dye to a coloured formazan, in cell work by metabolically active cells.)

The next experiment relates to LAM nodule cells. The experiment in a line: MTT cell viability assay, LAM nodule cells. Type of experiment: cell-based. The conditions noted are these: intermediate layer, centre and outer nodule cells, 72 hrs. The method, then:
To determine the function of lamstatin, human primary lymphatic endothelial cells (HMVEC-LLy cells) were exposed to various concentrations of lamstatin and an MTT assay was performed. As a comparison, commercially available tumstatin was used. Specifically, to assess cell viability 4×10^3 HMVEC-LLy cells were seeded per well in 100 μl complete EBM-2 media (with bullet kit, Lonza) and incubated for 2 hrs at 37° C., 5% CO2. After this period lamstatin, tumstatin and respective vehicles (1 nM EDTA, pH 3.0) were prepared in complete EBM-2 as serial dilutions in a separate plate and added. Cells were grown for 24 hrs before MTT (1 mg/mL in PBS) was added. After 6 h of further incubation cells were lysed overnight with 10% SDS/0.01 M HCl and measured the following day in a plate reader at 570 nm.
The inventors isolated lung cells from a LAM patient, which cells originated from the LAM nodules. These cells were termed according to their location within the nodule, as intermediate layer in the nodule, centre cells and outer nodule cells. These cells were then treated with lamstatin or tumstatin and cell viability measured after 72 hrs. The MTT viability assay was performed as described above in Example 1.

T1 sequence (P05106 27-788): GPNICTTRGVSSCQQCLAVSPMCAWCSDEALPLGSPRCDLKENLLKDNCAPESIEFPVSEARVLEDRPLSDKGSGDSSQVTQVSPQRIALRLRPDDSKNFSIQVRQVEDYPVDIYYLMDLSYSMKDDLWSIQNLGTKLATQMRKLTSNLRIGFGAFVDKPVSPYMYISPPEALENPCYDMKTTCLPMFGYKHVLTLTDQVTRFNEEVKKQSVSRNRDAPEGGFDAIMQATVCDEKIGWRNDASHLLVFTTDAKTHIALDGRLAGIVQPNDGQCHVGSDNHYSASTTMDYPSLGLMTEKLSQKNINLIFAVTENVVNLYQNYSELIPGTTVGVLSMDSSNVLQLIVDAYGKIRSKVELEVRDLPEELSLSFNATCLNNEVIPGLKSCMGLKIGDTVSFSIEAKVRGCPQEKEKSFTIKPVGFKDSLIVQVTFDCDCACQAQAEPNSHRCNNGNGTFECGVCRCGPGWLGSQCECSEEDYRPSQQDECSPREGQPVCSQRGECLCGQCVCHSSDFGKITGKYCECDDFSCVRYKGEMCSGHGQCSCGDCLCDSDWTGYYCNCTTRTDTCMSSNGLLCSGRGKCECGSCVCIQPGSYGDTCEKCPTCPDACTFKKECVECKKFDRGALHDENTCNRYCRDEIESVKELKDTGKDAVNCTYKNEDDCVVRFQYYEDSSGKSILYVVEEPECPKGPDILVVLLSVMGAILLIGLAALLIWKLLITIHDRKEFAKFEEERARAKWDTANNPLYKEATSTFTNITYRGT
T1 sequence (P06756 31-889 limits assumed, further chain): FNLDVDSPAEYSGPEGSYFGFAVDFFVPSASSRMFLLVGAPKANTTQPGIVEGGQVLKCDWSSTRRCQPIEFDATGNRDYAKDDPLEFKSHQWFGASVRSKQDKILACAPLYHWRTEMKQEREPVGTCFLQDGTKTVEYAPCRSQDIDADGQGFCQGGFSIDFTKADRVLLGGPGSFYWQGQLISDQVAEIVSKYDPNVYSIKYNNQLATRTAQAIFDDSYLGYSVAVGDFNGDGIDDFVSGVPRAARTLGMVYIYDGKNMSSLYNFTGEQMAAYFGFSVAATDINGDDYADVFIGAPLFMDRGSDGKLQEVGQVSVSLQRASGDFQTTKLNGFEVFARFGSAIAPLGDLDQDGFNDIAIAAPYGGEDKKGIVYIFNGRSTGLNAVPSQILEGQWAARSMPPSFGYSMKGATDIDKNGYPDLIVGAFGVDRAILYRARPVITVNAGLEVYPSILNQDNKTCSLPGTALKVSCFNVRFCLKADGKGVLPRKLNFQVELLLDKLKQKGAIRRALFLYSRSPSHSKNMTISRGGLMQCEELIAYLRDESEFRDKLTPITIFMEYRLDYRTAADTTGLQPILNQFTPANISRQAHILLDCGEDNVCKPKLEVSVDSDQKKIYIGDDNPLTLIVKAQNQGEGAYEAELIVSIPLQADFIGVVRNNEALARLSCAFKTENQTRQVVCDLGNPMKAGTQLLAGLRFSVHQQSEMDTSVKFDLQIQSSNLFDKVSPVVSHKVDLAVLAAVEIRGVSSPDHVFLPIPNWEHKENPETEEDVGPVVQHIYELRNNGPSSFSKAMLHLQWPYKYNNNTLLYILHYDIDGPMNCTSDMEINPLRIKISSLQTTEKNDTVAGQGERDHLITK
T1 sequence (P06756 891-1048 limits assumed, further chain): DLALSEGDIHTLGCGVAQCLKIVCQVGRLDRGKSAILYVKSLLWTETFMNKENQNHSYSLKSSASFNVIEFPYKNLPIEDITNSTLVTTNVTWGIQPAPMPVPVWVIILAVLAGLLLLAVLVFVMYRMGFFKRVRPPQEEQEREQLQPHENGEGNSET
T2 sequence (P08648 42-894 limits assumed): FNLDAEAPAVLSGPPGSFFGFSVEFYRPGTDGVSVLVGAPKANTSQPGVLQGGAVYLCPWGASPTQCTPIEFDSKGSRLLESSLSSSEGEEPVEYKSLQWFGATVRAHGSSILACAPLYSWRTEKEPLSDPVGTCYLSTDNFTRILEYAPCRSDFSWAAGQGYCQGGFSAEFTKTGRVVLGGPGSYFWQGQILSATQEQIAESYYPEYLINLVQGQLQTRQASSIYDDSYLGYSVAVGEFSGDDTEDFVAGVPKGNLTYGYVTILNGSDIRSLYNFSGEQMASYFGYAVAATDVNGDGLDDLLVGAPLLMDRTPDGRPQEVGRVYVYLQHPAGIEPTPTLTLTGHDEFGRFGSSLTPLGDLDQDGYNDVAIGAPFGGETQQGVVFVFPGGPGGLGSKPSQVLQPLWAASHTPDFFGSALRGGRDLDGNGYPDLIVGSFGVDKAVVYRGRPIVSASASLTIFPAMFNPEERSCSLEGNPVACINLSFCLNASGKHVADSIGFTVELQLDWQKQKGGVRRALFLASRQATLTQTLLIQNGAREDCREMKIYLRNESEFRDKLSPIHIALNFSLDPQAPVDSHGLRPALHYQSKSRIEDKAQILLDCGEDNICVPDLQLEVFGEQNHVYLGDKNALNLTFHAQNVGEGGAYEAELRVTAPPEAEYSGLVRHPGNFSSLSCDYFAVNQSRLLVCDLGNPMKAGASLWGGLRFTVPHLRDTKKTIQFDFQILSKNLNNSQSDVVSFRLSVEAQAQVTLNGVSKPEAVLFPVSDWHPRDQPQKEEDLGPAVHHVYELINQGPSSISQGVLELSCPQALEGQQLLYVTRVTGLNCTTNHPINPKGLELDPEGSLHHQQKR
T2 sequence (P08648 895-1049 limits assumed): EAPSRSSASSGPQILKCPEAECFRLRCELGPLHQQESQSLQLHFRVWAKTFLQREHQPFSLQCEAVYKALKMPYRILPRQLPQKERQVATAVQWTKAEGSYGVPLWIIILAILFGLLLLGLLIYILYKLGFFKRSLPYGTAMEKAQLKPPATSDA
T2 sequence (P05556 21-798): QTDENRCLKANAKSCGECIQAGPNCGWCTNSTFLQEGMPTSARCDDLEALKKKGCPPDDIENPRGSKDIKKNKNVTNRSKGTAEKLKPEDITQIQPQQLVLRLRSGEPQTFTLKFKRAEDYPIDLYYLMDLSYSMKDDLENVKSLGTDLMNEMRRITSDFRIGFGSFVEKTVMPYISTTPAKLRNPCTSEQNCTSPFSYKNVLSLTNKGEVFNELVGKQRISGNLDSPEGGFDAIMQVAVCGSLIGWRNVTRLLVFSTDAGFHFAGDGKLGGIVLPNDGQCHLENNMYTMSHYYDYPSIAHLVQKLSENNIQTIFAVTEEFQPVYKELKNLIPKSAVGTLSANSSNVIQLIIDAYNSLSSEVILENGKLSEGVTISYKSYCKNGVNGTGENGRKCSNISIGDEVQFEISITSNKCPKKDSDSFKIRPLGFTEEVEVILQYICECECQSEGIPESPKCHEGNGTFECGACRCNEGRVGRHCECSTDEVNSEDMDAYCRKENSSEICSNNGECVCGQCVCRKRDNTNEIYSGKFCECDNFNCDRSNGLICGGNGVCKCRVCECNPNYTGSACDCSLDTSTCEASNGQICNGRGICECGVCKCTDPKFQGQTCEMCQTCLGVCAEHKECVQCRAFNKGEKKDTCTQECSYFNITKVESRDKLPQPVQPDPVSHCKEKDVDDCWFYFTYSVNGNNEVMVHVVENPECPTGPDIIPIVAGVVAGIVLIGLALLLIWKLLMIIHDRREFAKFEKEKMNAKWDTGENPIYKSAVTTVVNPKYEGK
T3 sequence (P05556 21-798): as above
T3 sequence (P08648 42-894 limits assumed): as the sequence (P08648 42-894 limits assumed) above
T3 sequence (P08648 895-1049 limits assumed): as the sequence (P08648 895-1049 limits assumed) above

Turning to “VCNFASRNDYSYWLSTP (listed as Homo sapiens) [CP17]”, the “cell binding in presence of monoclonal antibody against integrin β3” value with integrin β3 was “no effect on binding”. The “cell binding in presence of monoclonal antibody against integrin α5” value in the experiment with integrin α5 is “significantly inhibited cell binding”. Moreover, the “cell binding in presence of monoclonal antibody against integrin β1” value in the experiment with integrin β1 is “significantly inhibited cell binding”. In addition, the “migration towards a VEGFD gradient” value in the experiment on HMVEC-LLy cells [1] (n=1, VEGFD alone 42.000 RFU) is given as “the same effect was not observed”. In addition, in experiment [2], the “number of branches of lymphatic vessels” value is recorded as “significantly reduced” and the “number of loops of lymphatic vessels” value is given as “significantly reduced”. In addition, the “numbers of tube-like structures formed” value in the experiment on HMVEC-LLy cells [3] is on record as “reduce in a concentration related manner”. Moreover, in the experiment with integrins α5 and β1, the “predominant integrins that mediate the binding of lymphatic endothelial cells” value is “integrins α5 and β1”.

In the experiment with VEGF-D (R&D Systems), “VEGFD specific blocking fusion receptor (R3-FC) (Fc fusion)” registered a migration of HMVEC-LLy towards a VEGFD gradient after 24 hrs (RFU) below 15000 RFU.

B1: VEGFD: growth factor (R&D Systems) used as chemoattractant gradient for lymphatic endothelial cells (protein)
chain: FYDIETLKVIDEEWQRTQCSPRETCVEVASELGKSTNTFFKPPCVNVFRCGGCCNEESLICMNTSTSYISKQLFEISVPLTSVPELVPVKVANHTGCKCLPTAPRHPYS
For B1, the “migration of lymphatic endothelial cells towards VEGFD” value with HMVEC-LLy cells [1] (increasing concentrations of VEGFD) is recorded as “attract lymphatic endothelial cells in a concentration related manner”.

B2: tumstatin: NC1 domain of the α3 chain of collagen type IV; human sequence SEQ ID NO:3; commercially available tumstatin was used (protein, listed as Homo sapiens)
chain: GFVFTRHSQTTAIPSCPEGTVPLYSGFSFLFVQGNQRAHGQDLGTLGSCLQRFTTMPFLFCNVNDVCNFASRNDYSYWLSTPALMPMNMAPITGRALEPYISRCTVCEGPAIAIAVHSQTTDIPPCPHGWISLWKGFSFIMFTSAGSEGTGQALASPGSCLEEFRASPFLECHGRGTCNYYSNSYSFWLASLNPERMFRKPIPSTVKAGELEKIISRCQVCMKKRH
With B2, the “numbers of tube-like structures formed” value with HMVEC-LLy cells [3] is given as “reduce in a concentration related manner”. Besides, in experiment [4], the “cell viability (MTT)” value is given as “lamstatin only”. For the same molecule, the “predominant integrins that mediate the binding of lymphatic endothelial cells” value with integrins α5 and β1 was “integrins α5 and β1”. Moreover, the “reduction of cell viability (MTT)” value in the experiment on LAM nodule cells is “effective in reducing cell viability at higher concentrations”.
